Measurements: US20230340112A1
Where a chain is given by its changes, count along the chain named. Names and notes keep the numbering of the source.

B1: 89H-IgG4 S228P (antibody, V domains shown)
VH: EVQLVESGGGLVQPGGSLRLSCAASGFSLSTYAMIWVRQAPGKGLEWVGIISPSGTTYYATWAKGRFTISRDNSKNTLYLQMNSLRAEDTAVYYCARAGSGGWDYFNIWGQGTLVTVSS
VL: DIQMTQSPSSLSASVGDRVTITCQASQSISSYLSWYQQKPGKAPKLLIYYASNLASGVPSRFSGSGSGTDFTLTISSLQPEDFATYYCQSYYYSNNYNWAFGGGTKVEIK
B2: 14H2B-IgG4 S228P (antibody, V domains shown)
VH: EVQLVESGGGLVQPGGSLRLSCAASGIDLSSYSMIWVRQAPGKGLEWIGIIYTGGSTDYASWAKGRFTISRDNSKNTLYLQMNSLRAEDTAVYYCARENSHDTFDPWGQGTLVTVSS
VL: DIQMTQSPSSLSASVGDRVTITCQSSQSVYTNYQSWYQQKPGKAPKLLIYAASTLASGVPSRFSGSGSGTDFTLTISSLQPEDFATYYCLGSYVSSGWYYAFGGGTKVEIK
B3: 8H- IgG4 S228P (antibody, V domains shown)
VH: EVQLVESGGGLVQPGGSLRLSCAASGFSFSSSDYMCWVRQAPGKGLEWVGCINSGSDTTSYATWAKGRFTISRDNAKNTLYLQMNSLRAEDTAVYYCARGYGSAGANGYVIGMKYLNLWGQGTLVTVSS
VL: DIQMTQSPSSLSASVGDRVTITCQASQSIGSNLAWYQQKPGKAPKLLIYTASTLESGVPSRFSGSGSGTDFTLTISSLQPEDFATYYCQCTYGSSSSGYPFGGGTKVEIK
B4: OSE-172 (antibody, from another filing, V domains shown)
VH: EVQLVQSGAEVKKPGESLRISCKASGYSFTSYWVHWVRQMPGKGLEWMGNIDPSDSDTHYSPSFQGHVTLSVDKSISTAYLQLSSLKASDTAMYYCVRGGTGTLAYFAYWGQGTLVTVSS
VL: DVVMTQSPLSLPVTLGQPASISCRSSQSLVHSYGNTYLYWFQQRPGQSPRLLIYRVSNRFSGVPDRFSGSGSGTDFTLKISRVEAEDVGVYYCFQGTHVPYTFGGGTKVEIKR
B5: 4E10-IgG4 S228P (antibody, V domains shown)
VH: EVQLVESGGGLVQPGGSLRLSCAASGFSLSNYEMIWVRQAPGKGLEWVGIIYVSRSTHYASWAKGRFTISRDNSKNTLYLQMNSLRAEDTAVYYCGRYLASGGFNIWGQGTLVTVSS
VL: DIQMTQSPSTLSASVGDRVTITCQASHNIYSNLAWYQQKPGKAPKLLIYDASKLASGVPSRFSGSGSGTEFTLTISSLQPDDFATYYCQSYYGNSYPFGGGTKVEIK
B6: 44H-IgG4 S228P (antibody, V domains shown)
VH: B2 VH with I27F, D28S, I48V, G55S, T57A, D58S
VL: B2 VL with Q34L
B7: 4H- IgG4 S228P (antibody, V domains shown)
VH: EVQLVESGGGLVQPGGSLRLSCAASGFSFSSYYFMCWVRQAPGKGLEWVACIDAGYSGGSHYASWAKGRFTISRDNSKNTLYLQMNSLRAEDTAVYYCARAYEYGYGGYDLWGQGTLVTVSS
VL: DIQMTQSPSSLSASVGDRVTITCQASQSIDSNLAWYQQKPGKAPKLLIYRASGLESGVPSRFSGSGSGTDFTLTISSLQPEDFATYYCQCTYGSNDSGNYANAFGGGTKVEIK

The binders below were run against human SIRPα expressed on the surface of human monocyte-derived dendritic cells (human) (UniProt P78324) (assay: flow cytometry, mDC surface binding, donor/experiment 3).
human SIRPα expressed on the surface of human monocyte-derived dendritic cells (human), sequence (P78324 31-504): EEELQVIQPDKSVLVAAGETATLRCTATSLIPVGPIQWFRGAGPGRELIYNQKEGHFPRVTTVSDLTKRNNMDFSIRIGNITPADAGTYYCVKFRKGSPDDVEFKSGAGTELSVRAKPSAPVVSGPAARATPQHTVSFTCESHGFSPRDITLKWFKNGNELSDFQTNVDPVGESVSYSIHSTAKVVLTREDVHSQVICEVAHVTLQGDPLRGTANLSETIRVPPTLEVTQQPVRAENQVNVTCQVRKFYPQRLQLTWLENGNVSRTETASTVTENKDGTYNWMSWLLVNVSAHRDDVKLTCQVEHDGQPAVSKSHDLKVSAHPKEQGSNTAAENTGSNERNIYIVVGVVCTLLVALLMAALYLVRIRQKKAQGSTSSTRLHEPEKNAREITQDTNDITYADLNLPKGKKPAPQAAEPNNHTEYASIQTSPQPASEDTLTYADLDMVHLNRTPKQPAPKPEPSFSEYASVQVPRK

Row | Binder | Kd
1 | B1 | 0.881 nM
2 | B2 | 0.99 nM

The binders below were run against human SIRPα expressed on the surface of human monocyte-derived dendritic cells (human) (UniProt P78324) (assay: flow cytometry, mDC surface binding, donor/experiment 1).

Row | Binder | Kd
3 | B1 | 1.04 nM
4 | B2 | 1.48 nM

What follows are binders tested against human SIRPα expressed on the surface of human monocyte-derived dendritic cells (human) (UniProt P78324) (assay: flow cytometry on human monocyte-derived dendritic cells).

Row | Binder | Kd
5 | B1 | 0.378 nM
6 | B3 | 1.66 nM
7 | B4 | 0.572 nM
8 | B5 | 0.264 nM
9 | B2 | 0.686 nM
10 | B6 | 0.672 nM
11 | B7 | 0.0881 nM

Each binder was assayed against human SIRPα expressed on the surface of human monocyte-derived dendritic cells (human) (UniProt P78324) (assay: flow cytometry, mDC surface binding, donor/experiment 4).

Row | Binder | Kd
12 | B1 | 0.908 nM
13 | B2 | 1.33 nM

What follows are binders tested against human SIRPα expressed on the surface of human monocyte-derived dendritic cells (human) (UniProt P78324) (assay: flow cytometry, mDC surface binding, donor/experiment 2).

Row | Binder | Kd
14 | B1 | 0.923 nM
15 | B2 | 0.953 nM
